Results as given in patent US20250147051A1 (GTINVENT, published 2025).
Residue numbers refer to the chain shown, from its start. Where two headings read alike, the source gives them in different places.

B1: CB3 scAb (scFv)
scFv: QVQLQESGPSLVKPSQTLSLTCTVSGFSLSSVAVNWVRQAPGKVPEWLGGIISNGGTGYNPALKSRLSITRDTSKSQVSLALTHVTTEDTAVYYCGRGVEWEGSMDYLGPGLLVTVSSEGKSSGSGSETKVDDQSVLTQPSSVSGFLGQRVTITCSGSSSNVGAGSYVGWYQQVPGSGLRILIYGATKRASGLPDRFSGSRSGNTATLTISSLQAEDEADYYCVSYQTDFTLVFGSGTRLTVLG
notes: scAb (scFv-HuCk-His)
B2: 412G11 (scFv)
scAb: QVRLQESGPSLVKPSQTLSLTCTVSGFSLTSYALGWVRQAPGRAPEWIGNIWRGGRIEYNPALKSRLSITRDTSKSQVSLSLSSVTTEDTAVYYCSRSGGDWGPGLLVTVSSEGKSSGASGESKVDDQAVLTQPSSVSGSLGQRVSITCSGSSSNVGYGNYVGWYQQVPGSAPKLLIYGATSRASGVPDRFSGSRSENTATLTISSLQAEDEADYYCASYDRSESVVFGSGTRLTVLG
B3: S1G10 scAb (scFv)
scFv: QVQLQESGPSLVKPSQTLSLTCTVSGFSLTSNSVGWVRQAPGKAPEWVAGIDTDGEEGYNPALNSRLSITRDTSKSQVSLSLSSVTSEDTAVYYCGRSYRADGLAYGYVQAIDYWGPGLLVTVSSEGKSSGASGESKVDDQAVLTQPSSMSGSLGQRVSITCSGSFIGISSVGWFQQLPGSGLRTIIVASDGRPSGVPDRFSMSKSGNTATLTISSLQAEDEADYFCGSSDRTQYTGVFGSGTRLTVLG
notes: scAb (scFv-HuCk-His)
B4: S1G2 scAb (scFv)
scFv: B3 scFv with L144V, M150V, Q234P
notes: scAb (scFv-HuCk-His)
B5: CA9 scAb (scFv)
scFv: B3 scFv with A101S, S148A, M150V
notes: scAb (scFv-HuCk-His)
B6: CC7 scAb (scFv)
scFv: QVQLQESGPSLVKPSQTLSLTCTVSGFSLTSNAVIWVRQAPGKAPEWVALIDVDGDAAYDPALKSRLSITRDTSKSQVSLSLRSVTTEDTAVYYCARDYGSWGYVSDIDYWGPGLLVTVSSEGKSSGASGESKVDDRVVRTQPSSVSGSLGQRVSITCSGSYITGSSVGWFQQVPGSGLKTVIYDNNDRPSGVPDRFSGSKSGDTATLTISSLQAEDEADYYCASYDTSNIGLFGSGTRLTVLG
notes: scAb (scFv-HuCk-His)
B7: CB7 mAb (antibody, mouse IgG2a, V domains shown)
VH: QVQLQESGPSLVKPSQTLSLTCTVSGFSLTNYRVGWVRQAPGKALEWVSNIRSGGTTWYNPALKSRLSITADTSKSQVSLSLSSVTTEDTAVYYCARDSSGDLYAYDYWGPGLLVTVSS
VL: QAVLTQPSSVSRSLGQSVSMTCSGSSSNVGYGNYMAWFQQVPGSAPKLLIYGATSRASGVPDRFSGSRSGNTATLTISSLQAEDEADYYCASYDSTSGGVFGSGTRLTVLG
notes: also called CB7 antibody
B8: CB7 scAb (scFv)
scFv: QVQLQESGPSLVKPSQTLSLTCTVSGFSLTNYRVGWVRQAPGKALEWVSNIRSGGTTWYNPALKSRLSITADTSKSQVSLSLSSVTTEDTAVYYCARDSSGDLYAYDYWGPGLLVTVSSEGKSSGASGESKVDDQAVLTQPSSVSRSLGQSVSMTCSGSSSNVGYGNYMAWFQQVPGSAPKLLIYGATSRASGVPDRFSGSRSGNTATLTISSLQAEDEADYYCASYDSTSGGVFGSGTRLTVLG
notes: scAb (scFv-HuCk-His)
B9: CE3 scAb (scFv)
scFv: QVRLQESGPSLVKPSQTLSVTCTVSGFSLISNAVGWVRQAPGKVPESLAGCSSDGKCYYNSALKSRLDITRDTSKNQISLSLSSVTTDDAAVYYCTRGYYPVYGYDYLGTIDYWGPGLLVTVSSEGKSSGASGESKVDDQAVLTQPSSVSGSLGQRVSITCSGSSSNVGRNDVAWFQQLPGSGLRTIIYGTTSRPSGIPDRFSGSKSGVTATLTIDSLQAEDEADYFCASGDSSAINDIFGSGTRLTVLG
notes: scAb (scFv-HuCk-His)
B10: CC7 mAb (antibody, mouse IgG2a, V domains shown)
VH: QVQLQESGPSLVKPSQTLSLTCTVSGFSLTSNAVIWVRQAPGKAPEWVALIDVDGDAAYDPALKSRLSITRDTSKSQVSLSLRSVTTEDTAVYYCARDYGSWGYVSDIDYWGPGLLVTVSS
VL: RVVRTQPSSVSGSLGQRVSITCSGSYITGSSVGWFQQVPGSGLKTVIYDNNDRPSGVPDRFSGSKSGDTATLTISSLQAEDEADYYCASYDTSNIGLFGSGTRLTVLG
notes: also called CC7 antibody
B11: 412E10 scAb (scFv)
scFv: QVQLQESGPSLVKPSQTLSLTCTVSGFSVISDSVAWVRQAPGKVPEWLGASGSSGNKYYNPALKSRLSITRDTSKSQVSLSLSSVTTEDTAVYYCARGIIAGVDVWGRGLLVTVSSEGKSSGASGESKVDDQAVLTQPSSVSGSLGQRVSITCSGSSSNVGYGNYVGWYQQVPGSAPKLLIYGTAIRASGVPDRFSGSRSGDTATLTITSLQAEDEADYYCASYQSNYAFFGSGTRLTVLG
notes: scAb (scFv-HuCk-His)
B12: CA4 scAb (scFv)
scFv: QVQLQESGPSLVKPSQTLSLTCTVSGFSLTSYSVYWVRQAPGQALEWISIMYASGRVDYNPALKSRLSITRDTSKSQFSLSLSSVTTEDTAVYYCTRGIENWGPGLLVTVSSEGKSSGASGESKVDDDIQVTQSPSSLSASLTERVSITCRTSQSVNNYLSWYQQKPGQAPKLLIYYATRLYTDVPSRFSGSGSGTDYTLTITSLEADDTATYYCLQYDSTPLAFGGGTNVEIK
notes: scAb (scFv-HuCk-His)

Legend:
[1] = molecular target: T1, full length human tau protein 2N4R (hT40) (human, UniProt P10636 1-758); assay: direct ELISA, coated hT40
T1 construct: recombinant protein; also called T441

[2] = molecular target: T1, full length human tau protein 2N4R …; assay: direct ELISA, coated hT40; remark: listed apart in the source
[3] = molecular target: T1, full length human tau protein 2N4R …; assay: sandwich ELISA, S1D12 mAb capture, colourimetric detection
Description: (§1) Full length tau (hT40), at 1 μg/ml starting concentration was added to designated wells and double diluted across rest of the plates and left to incubate at R/T for 1 h. A series of detection scAbs with varying epitope recognition properties were added at 10 μg/ml to designated wells (FIG. 22). For colourimetric detection HRP conjugated anti-HuCk secondary antibody was used and the resulting immunoreaction was developed and absorbance at 450 nm measured as described previously. Cut-off point for a positive binding event was an absorbance value of 0.3 following background subtraction. In order to enhance the assay sensitivity, a chemiluminescent detection method was adopted where 50 μL SuperSignal ELISA Femto Substrate (Thermo Scientific) was added to each well following incubation with anti-HuCK HRP antibody and subsequent washing. The luminescence was read using Clariostar Plus microplate reader. A further modification to this protocol was done where various detection scAbs were directly conjugated with HRP and detected using chemiluminescent protocol as before.

[4] = molecular target: T1, full length human tau protein 2N4R …; assay: sandwich ELISA, S1D12 mAb capture, chemiluminescence detection
Description: as §1

[5] = molecular target: T2, DGAE + LMT Agg; assay: sandwich ELISA, 423 mAb capture, dGAE species titrated, scAb detection at 10 ug/ml [D00039 Figure 34F]
T2 construct: also called dGAE agitated in the presence of LMTM (Total, Supernatant, Pellet)
Description: (§2) For preparing the aggregates, 10 μl 10 mM DTT was added to 1000 μl 100 μM dGAE and agitated with/without LMTM (1:5 ratio) at 700 rpm for 24 h at 37° C. Following overnight agitation, one third of each sample was kept aside as ‘total’ and the rest was spun down at 16000×g for 30 min and separated into ‘supernatant’ and ‘pellet’. The pellet was then resuspended in half the original volume for further experiments. […] Doubling dilutions of dGAE aggregate ‘total’, ‘supernatant’ and ‘pellet’ samples at 10 μg/ml starting concentration were added to designated wells in doubling dilutions in 1×PBS. dGAE monomer (non-aggregated) was included as assay control. All double dilutions were done in final volumes of 100 μl. This was left to incubate on lab bench for 1 h followed by the addition of test scAbs at 10 μg/ml.

[6] = molecular target: T3, mouse tau (Isoform Tau-A) (mouse, UniProt P10637 2-733); assay: Western blot of brain homogenates
T3 construct: endogenous protein in mouse brain homogenate or plasma; isoform in the samples not determined; also called endogenous mouse tau

[7] = molecular target: T4, human tau 296-390 (Line 1 transgene fragment) (human, UniProt P10636 613-707); assay: Western blot of brain homogenates
T4 construct: also called L1 fragment; 10-kDa tau fragment

[8] = molecular target: T2, DGAE + LMT Agg; assay: sandwich ELISA, 423 mAb capture, dGAE species titrated, scAb detection at 10 ug/ml [D00041 Figure 34O]
Description: as §2

T1 sequence (P10636 other isoform, or with tags, fused parts or gaps limits assumed): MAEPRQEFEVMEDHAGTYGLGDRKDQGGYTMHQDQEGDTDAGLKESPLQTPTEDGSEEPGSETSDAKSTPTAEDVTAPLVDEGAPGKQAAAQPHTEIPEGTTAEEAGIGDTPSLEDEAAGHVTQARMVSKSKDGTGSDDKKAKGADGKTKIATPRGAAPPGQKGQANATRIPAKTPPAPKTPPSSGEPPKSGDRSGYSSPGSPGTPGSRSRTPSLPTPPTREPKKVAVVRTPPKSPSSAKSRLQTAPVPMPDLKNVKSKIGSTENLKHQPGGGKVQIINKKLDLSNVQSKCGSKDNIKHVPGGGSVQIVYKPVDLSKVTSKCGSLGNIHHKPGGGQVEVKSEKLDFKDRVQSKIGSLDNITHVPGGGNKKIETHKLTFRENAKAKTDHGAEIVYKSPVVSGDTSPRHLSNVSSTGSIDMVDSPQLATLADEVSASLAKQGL
T3 sequence (P10637 other isoform, or with tags, fused parts or gaps limits assumed): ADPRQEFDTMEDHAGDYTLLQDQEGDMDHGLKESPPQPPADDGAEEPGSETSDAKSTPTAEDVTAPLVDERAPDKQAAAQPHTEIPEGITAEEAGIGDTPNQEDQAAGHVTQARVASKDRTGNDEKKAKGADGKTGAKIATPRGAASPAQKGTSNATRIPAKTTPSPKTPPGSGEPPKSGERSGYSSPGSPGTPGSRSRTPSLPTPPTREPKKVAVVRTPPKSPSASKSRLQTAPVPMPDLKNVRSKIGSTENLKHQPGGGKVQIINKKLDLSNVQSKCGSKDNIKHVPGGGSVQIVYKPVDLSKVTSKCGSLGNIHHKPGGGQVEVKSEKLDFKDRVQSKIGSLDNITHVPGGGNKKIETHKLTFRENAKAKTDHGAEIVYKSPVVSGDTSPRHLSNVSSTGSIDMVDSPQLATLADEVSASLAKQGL
T4 sequence (P10636 613-707): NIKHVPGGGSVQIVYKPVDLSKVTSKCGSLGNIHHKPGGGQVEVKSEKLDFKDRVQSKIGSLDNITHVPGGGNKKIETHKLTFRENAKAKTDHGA
T2 sequence (fragment, as listed by the source limits assumed): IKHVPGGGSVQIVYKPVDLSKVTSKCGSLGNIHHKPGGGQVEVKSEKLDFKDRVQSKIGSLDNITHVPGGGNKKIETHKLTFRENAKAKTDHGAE

Binder | LoD [3] [ng/mL] | LoD [4] [ng/mL] | further results
B1 | – | – | EC50 (read off the curve) [1]: ~0.1 µg/mL
B2 | – | – | EC50 (read off the curve) [2]: ~6 µg/mL
B3 | 2 | 0.12 | –
B4 | – | 0.12 | –
B5 | – | – | binding result [5]: binds
B6 | 6 | 3.33 | –
B7 | – | – | binding result [6]: no binding (tested: 20 µg brain protein); binding result [7]: no binding (tested: 20 µg brain protein)
B8 | 15 | 3.33 | –
B9 | – | – | binding result [8]: binds
B10 | – | – | binding result [6]: no binding (tested: 20 µg brain protein); binding result [7]: no binding (tested: 20 µg brain protein)
B11 | 20 | 0.37 | –
B12 | 6 | 0.37 | –
